Results reported in a protein production outcome set (Wang et al. 2014).

Test: label from the status in PepcDB records

Protein production, not failed:
PLKEQKVINTANITTNSKLDLAEYENGLMNIAKEQFDTENHVLQLNQYIPEKLVDELVAKVKAPVLTNIIEQDYFGKQNSNELSLSGVMIGLAMSSSVSNEEAMSKGTEVANQLIEAIHKNDKYNKSPITFAIFKQESTSSLKNGTYIASATVQKNDTNIGNWNAIEEKAYSYPSDEFTQAHGEDNTKIDDFAKEMKGFSPGDFIPVNAKVSYKKNQMDTLNMNIVIKYNGKTELMALTQLAAQIMLEQLPKDAKVQLQIKSENKIEAIVIKEKNSDKPFV
PLKEQKVINTANITTNSKLDLAEYENGLMNIAKEQFDTENHVLQLNQYIPEKLVDELVAKVKAPVLTNIIEQDYFGKQNSNELSLSGVMIGLAMSSSVSNEEAMSKGTEVANQLIEAIHKNDKYNKSPITFAIFKQESTSSLKNGTYIASATVQKNDTNIGNWNAIEEKAYSYPSDEFTQAHGEDNTKIDDFAKEMKGFSPGDFIPVNAKVSYKKNQMDTLNMNIVIKYNGKTELMALTQLAAQIMLEQLPKDAKVQLQIKSENKIEAIVIKEKNSDKPFVSFL
PNRRADDNATIRVTNLSEDTRETDLQELFRPFGSISRIYLAKDKTTGQSKGFAFISFHRREDAARAIAGVSGFGYDHLILNVEWAKPSTN
PPLEINSRVSLKVGETIESGTVIFCDVLPGKESLGYFVGVDMDNPIGNWDGRFDGVQLCSFACVESTILLHINDIIPES
PPPAPIPDLKVFEREGVQLNLSFIRPPENPALLLITITATNFSEGDVTHFICQAAVPKSLQLQLQAPSGNTVPARGGLPITQLFRILNPNKAPLRLKLRLTYDHFHQSVQEIFEVNNLPVESWQ
PQLVRTHEDVPGPVGHLSFSEILDTSLKVSWQEPGEKNGILTGYRISWEEYNRTNTRVTHYLPNVTLEYRVTGLTALTTYTIEVAAMTSKGQGQVSASTISSGVPP
PRSRTKISLEALGILQSFIHDVGLYPDQEAIHTLSAQLDLPKHTIIKFFQNQRYHVKH
PSGFPQNLHVTGLTTSTTELAWDPPVLAERNGRIISYTVVFRDINSQQELQNITTDTRFTLTGLKPDTTYDIKVRAWTSKGSGPLSPSIQSRTMPV
PSNAMKQAWLQISQDNKLMSCNDTSKANALLDMVTQGLNPAKNQCYFIPYGNKMQLQRSYHGNVMMLKRDAGAQDVVAQVIYKGDTFKQEMGETGRIKAIKHEQDFFNIDKENIIGAYCTIVFNDGRDNYIEVMTIEQIKQAWMQSSMIKDEKALQNSKTHNNFKEEMAKKTVINRAAKRYINTSTDSNLFKYAQESEQRQRKEVLDAEVEENANQE
PSPGGQMHAGISSFQQSNSSGTYGPQMSQYGPQGNYSRPPAYSGVPSASYSGPGPGMGISANNQMHGQGPSQPCGAVPLGRMPSAGMQNRPFPGNMSSMTPSSPGMSQQGGPGMGPPMPTVNRKAQEAAAAVMQAAANSAQSRQGSFPGMNQSGLMASSSPYSQPMNNSSSLMNTQAPPYSMAPAMVNSSAASVGLADMMSPGESKLPLPLKADGKEEGTPQPESKSKDSYSSQGISQPPTPGNLPVPSPMSPSSASISSFHGDESDSISSPGWPKTPSSPKSSSSTTTGEKITKVYELGNEPERKLWVDRYLTFMEERGSPVSSLPAVGKKPLDLFRLYVCVKEIGGLAQVNKNKKWRELATNLNVGTSSSAASSLKKQYIQYLFAFECKIERGEEPPPEVFSTGDTKKQPKLQPPSPANSGSLQGPQTPQSTGSNSMAEVPGDLKPPTPASTPHGQMTPMQGGRSSTISVHDPFSDVSDSSFPKRNSMTPNAPYQQGMSMPDVMGRMPYEPNKDPFGGMRKVPGSSEPFMTQGQMPNSSMQDMYNQSPSGAMSNLGMGQRQQFPYGASYDRRHEPYGQQYPGQGPPSGQPPYGGHQPGLYPQQPNYKRHMDGMYGPPAKRHEGDMYNMQYSSQQQEMYNQYGGSYSGPDRRPIQGQYPYPYSRERMQGPGQIQTHGIPLQMMGGPLQSSSSEGPQQNMWAARNDMPYPYQNRQGPGGPTQAPPYPGMNRTDDMMVPDQRINHESQWPSHVSQRQPYMSSSASMQPITRPPQPSYQTPPSLPNHISRAPSPASFQRSLENRMSPSKSPFLPSMKMQKVMPTVPTSQVTGPPPQPPPIRREITFPPGSVEASQPVLKQRRKITSKDIVTPEAWRVMMSLKSGLLAESTWALDTINILLYDDSTVATFNLSQLSGFLELLVEYFRKCLIDIFGILMEYEVGDPSQKALDHNAARKDDSQSLADDSGKEEEDAECIDDDEEDEEDEEEDSEKTESDEKSSIALTAPDAAADPKEKPKQASKFDKLPIKIVKKNNLFVVDRSDKLGRVQEFNSGLLHWQLGGGDTTEHIQTHFESKMEIPPRRRPPPPLSSAGRKKEQEGKGDSEEQQEKSIIATIDDVLSARPGALPEDANPGPQTESSKFPFGIQQAKSHRNIKLLEDEPRSRDETPLCTIAHWQDSLAKRCICVSNIVRSLSFVPGNDAEMSKHPGLVLILGKLILLHHEHPERKRAPQTYEKEEDEDKGVACSKDEWWWDCLEVLRDNTLVTLANISGQLDLSAYTESICLPILDGLLHWMVCPSAEAQDPFPTVGPNSVLSPQRLVLETLCKLSIQDNNVDLILATPPFSRQEKFYATLVRYVGDRKNPVCREMSMALLSNLAQGDALAARAIAVQKGSIGNLISFLEDGVTMAQYQQSQHNLMHMQPPPLEPPSVDMMCRAAKALLAMARVDENRSEFLLHEGRLLDISISAVLNSLVASVICDVLFQIGQL
PVPATPILQLEECCTHNNSATLSWKQPPLSTVPADGYILELDDGNGGQFREVYVGKETMCTVDGLHFNSTYNARVKAFNKTGVSPYSKTLVLQTSEG
QEQRMSHHYATIEVSQQLRQLLGDQLVILLRETPDGQALERSQNDFRRVLEQGRANTVDSAEQAALDGVRDAYLQLQAHTPALLEAPMADNDGFSEAFNGLRLRLQDLQQLALAGISEAETSARHRA
QETGISMIGERTNSNGSKAFREAMLSGDWEKCVDIAKQQTRDGAHMLDLCVDYVGRDGTADMATLAALLATSSTLPIMIDSTEPEVIRTGLEHLGGRSIVNSVNFEDGDGPESRYQRIMKLVKQHGAAVVALTIDEEGQARTAEHKVRIAKRLIDDITGSYGLDIKDIVVDCLTFPISTGQEETRRDGIETIEAIRELKKLYPEIHTTLGLSNISFGLNPAARQVLNSVFLNECIEAGLDSAIAHSSKILPMNRIDDRQREVALDMVYDRRTEDYDPLQEFMQLFEGVSAAD
QIAAVDPAGMSVIRDRNQLFRVNSAGEVENTYTLKVINKTQQVQEYNLDVKGLNDVSWYGKQTIQVEPGEVLNLPMSLGADPDKLNSAITTIQFILTDKSNEFTIEVESRFIKKL
QPTGTMTTDSKLTSKESALALTNSAYLKNTVFNKMTPGWGCNTILLLEYMTGKATSENSQSNYKDFQDLLVSDRSLYIEDWWQDCYAGIANCNLALQKLGEFENLDASLVNGYMAEVKFMRALYYFYLVRIFGDVPKITTVQSELGELQVSRAPVKEIYDEIIIPDLLEAEQSDLAFSDHTGRVSMGAVKALLADVYLTYAGYPLQGGKSYYAESAKRSLEVIKSNEYTLFTDYESLRLPSQNNKGEFIYQVQFSLNKRHNESVRIFLPSRSGISAYDLEYGSLIPTKEFVESFEKGDKRTEEKQYFFTNYKGHPSKFSPGAAELEFMDLNGYYIYKFFDQVAVDNTAKSDLNWSVYRYTDVLLMYAEAQVNADGTPNQQSIDIVNQIRGRAGLAPFKQTNASAFLEEVWDQRYFDLCYENKMWFDMLRTRKIRDDKSGEYVDFIGYKTNWGKVYTETQLLFPIPLSERQANPNLTQNQGY

Protein production, failed:
PQEKLKLLAFTGTKGKTTAAYFAYHMLKESYKPAMFSTMNTTLDGKTFFKSQLTTPESLDLFAMMAECVTNGMTHLIMEVSSQAYLVDRVYGLTFDVGVFLNISPDHIGPIEHPTFEDYFYHKRLLMENSRAVVINSGMDHFSFLADQVADQEHVFYGPLSDNQITTSQAFSFEAKGQLAGHYDIQLIGHFNQENAMAAGLACLRLGASLADIQKGIAKTRVPGR
PRWSVAAATAVTDFCDRLACDRVALGRRHRRRSKVVSLSHSGNFQRSSELVQRIADAMDEAIDQGEPIRMPQDSDNTLTLTAAHQELIHSGVPRAVLTVLLRRDGRVTGAMVLERGGNNPFRDEEVELVEAVAGILGPVLEEKRLNDR
PSFNLGYIGLNNRNEYLKNPKVRQAISMAINRRAVVDAFWSGLGRTDTSIVPPALGWATSSKVPADYKFDPAAAKKLLAEAGYPNGFTLDFWYMPITRSYFPQPKASAEAMAADLADVGIKVNLKTEDWAKYLDDLFAGRLSMFQIGLIGDYGDPDYFYGALYNPTSTNDIGWNAPAELDTLLQQARSGLTRQARAQAYARIHELTYNAGYRIPLVHSQ
PSGATGKDGLAIPVGKDTAKSSLTVWEDFRCPACKIFETTYRPTLHELVGAGKLKIDYHLVTIIDDGRGGSGSRQAANAAACAQDAGKFTAYHDVLYDNQPDETVDSFADDSKLIELAGKVDGLDTPAFRKCVKDGTHNSWVVKSNAAFDSGGFKGTPTVLFGGKNLAADPTMTPAKLKQMVEAANK
PSYTVTVATGSQWFAGTDDYIYLSLVGSAGCSEKHLLDKPFYNDFERGAVDSYDVTVDEELGEIQLVRIEKRKYWLNDDWYLKYITLKTPHGDYIEFPCYRWITGDVEVVLRDGRAKLARDDQIHILKQHRRKELETRQKQYRWMEWNPGFPLSIDAKCHKDLPRDIQFDSEKGVDFVLNYSKAMENLFINRFMHMFQSSWNDFADFEKIFVKISNTISERVMNHWQEDLMFGYQFLNGCNPVLIRRCTELPEKLPVTTEMVECSLERQLSLEQEVQQGNIFIVDFELLDGIDANKTDPCTLQFLAAPICLLYKNLANKIVPIAIQLNQIPGDENPIFLPSDAKYDWLLAKIWVRSSDFHVHQTITHLLRTHLVSEVFGIAMYRQLPAVHPIFKLLVAHVRFTIAINTKAREQLICECGLFDKANATGGGGHVQMVQRAMKDLTYASLCFPEAIKARGMESKEDIPYYFYRDDGLLVWEAIRTFTAEVVDIYYEGDQVVEEDPELQDFVNDVYVYGMRGRKSSGFPKSVKSREQLSEYLTVVIFTASAQHAAVNFGQYDWCSWI
PVGAVMTPRPEVDMIDLSDPPDQIRATFASSPHSRLPATDGDRDDPIGIIQSKDVLEVYLRGETPDFRALVRDAPVIPASADARDALIMLRNASVHMGLVYDEFGGFEGVVSTADILESIVGAFSSEDG
PYYLFMTMYWHHTSTTPVSTVLITHGYAEHQGRYSALVRSLLNYNFDVVTFDLPGHGYAPGPRACVDVDKLVDFHVALRHRAEQDCRLRTETMCLFGHSMGGLITALSVLEDSSNVSAVALSGPAFSPFPKTPRVVTRMLRCSARIAPRLKVLALPQDAISRDPEVVAAYANDPRNYTGRVPLLTGASMALAGQKALAQASQWDRSVPLLVMHGSADRLADIEGSRNFAASAGGTMRPVDGAFHEIFNEPEAPQLRAELCEWLHANCG
QGSVSTNLQEKGLVVSIVDTLMFDTGRAEVKPDFQKKLVEIGEILKTIDNYIRIEGHTDNTPISNSQYASNIELGSARSNNVEHLFIDVSKIPVTQMYTVSYADTRPVADNNSEAGKARNRRVDIVILNSK
QIAELPYAMRINNSFEARKSPHAFVNLLNYILLEKSGADIACTALFDSANGFDEKITMRDIINNYPFPNTFKVIELSGKDIKLAIERSASYFDIVNHKITVNKEFLEPKPQHFNYDIFAGIQYTIHVSHPYGERVSDLLINDAPIQSDQIYTICVNNYRAVGGGNYDMYVNKPVIKDIQIEGAQLLIDYLSHNDLSQIPQVIDFNVVK
QKVQDAAMQEDPKALDEVVIVARQNINELDIRAKSGVVQRVDVERLNSKPMIDMSLALQGAVPGLIITNTGDLGSKPEIRIRGNSSFRKGDMANEPLYVMDGKVISSDAFMTLNPADIQEIKVLKDAVACALYGIKAANGVIEITSQRGNPDG
